Test results as given in patent publication US20250179143A1, “SYSTEMS AND METHODS FOR CHAPERONE-MEDIATED LIGAND EXCHANGE ON MHC-I AND MHC-RELATED MOLECULES USING CHICKEN TAPBPR” (priority 2022, published 2025).

Tests used:
HLA-B*37:01 = HLA-B*37:01 (Homo sapiens, UniProt P01889, A329T/A93T/A95T/C349S/D138N/D201E/D98Y/E176V/E187T/E204Q/E69T/G107R/H137Y/K202T/L119I/N104T/N87E/Q94N/R106L/R155S/R180D/S101D/S121R/V306I/Y123S/Y140F/Y33H/Y91S); assay: SAB screen; assay type: binding; conditions: HLA-B*37:01 beads; FIG. 41
[1] = DSF thermal stability of chaperone proteins; conditions: DSF of the recombinant chaperone protein
HLA-A*02:01 [2] = target: T1, HLA-A*02:01 (Homo sapiens, UniProt P04439, D140Y/D185E/D98H/E176V/E277Q/G131W/G231S/I119V/I121R/I166T/I218V/L300P/L318F/N151K/N90K/P208A/P217A/Q86G/Q94H/R138H/R169H/T345S); assay: Fluorescence polarization (FP) peptide exchange; conditions: HLA-A*02:01/KILGFVFβFV, […]
HLA-A*02:01 [3] = target: T1, HLA-A*02:01; assay: SPR; conditions: peptide-deficient (empty) HLA-A*02:01
HLA-A*02:06 = target: T2, HLA-A*02:06 (Homo sapiens, UniProt P04439, D140Y/D185E/D98H/E176V/E277Q/F33Y/G131W/G231S/I119V/I121R/I166T/I218V/L300P/L318F/N151K/N90K/P208A/P217A/Q86G/Q94H/R138H/R169H/T345S); assay: Fluorescence polarization (FP) peptide exchange; assay type: biochemical; conditions: pHLA-A*02:06
T2 construct: made in house

HLA-B*08:01 = HLA-B*08:01 (Homo sapiens, UniProt P01889, A93T/A95T/D138N/E176V/E187T/K202T/Q94N/R180D/S35A/V36M/Y33D/Y91F); assay: Fluorescence polarization (FP) peptide exchange; conditions: based on DSF or FP assays
HLA-A*01:01 = HLA-A*01:01 (Homo sapiens, UniProt P04439, A114D/A174V/A182V/D101N/D185E/E176A/E190D/L180R/Q94H/R68K/S129P/T187R/V100A/V91M/W191G); assay: Fluorescence polarization (FP) peptide exchange; conditions: HLA-A*01:01, chaperone at 5 μM
HLA-A*02:01 [4] = target: T1, HLA-A*02:01; assay: Native gel shift assay (EMSA); assay type: binding; conditions: UV-irradiated HLA-A*02:01/KILGFVFJV, 1:1 molar ratio
Method: (§1) For native gel shift assays, purified MHC-I molecules refolded with photo-labeled peptides (pMHC-I) and TAPBPR proteins were loaded into polyacrylamide gels alone at 7 μM concentration and as mixtures. For the mixtures, 1:1 molar ratio of pMHC-I and TAPBPR samples at 7 μM each were prepared and incubated at room temperature (RT) for 1 hour. The samples were then UV-irradiated for another hour at 365 nm and were run at 90 V for 5.5 hours on a 12% polyacrylamide gel. Staining was performed using InstantBlue (Novus Biologicals).
as §1, with “Native gel” for “For native gel”, “shift assay. Purified” for “shift assays, purified”, “mixtures, a” for “mixtures,”, “each was” for “each were”, “at RT” for “at room temperature (RT)”

[5] = tested on: 96 different HLA allotypes on single antigen HLA class I beads; assay: SAB screen, all beads; assay type: binding, human; conditions: across HLA allotypes; FIG. 23e
Method: For the Single Antigen Bead Screen, 7 μM of TAPBPR in tetramers were mixed with 4 μL of the LABScreen single antigen HLA-I bead suspension (OneLambda, Inc., CA, USA) in a 96-well plate. The samples were incubated for 1 hour, 550 rpm at RT, washed four times in Wash Buffer (OneLambda, Inc., CA, USA) to remove excess of tetramers and re-suspended in 1×PBS buffer (pH 7.2). For the negative controls, beads were incubated with the Anti-HLA Class I antibody W6/32 (Abcam, ab22432) for 30 min, 550 rpm at RT and washed three times prior tetramer addition. To test the levels of peptide loaded MHC-I molecules on the beads, Applicants used the same W6/32 antibody and the secondary anti-mouse PE-conjugated antibody (Abcam, ab97024) for detection. The levels of TAPBPR bound to the beads were measured using the Luminex 100 Liquid Array Analyzer System and the results were analyzed in GraphPad Prism v7.
SABs screen. 7 μM of TAPBPR in tetramers were mixed with 4 μL of the LABScreen single antigen HLA-I bead suspension (OneLambda, Inc., CA, USA) in a 96-well plate. […] The levels of TAPBPR bound to the beads were measured using the Luminex 100 Liquid Array Analyzer System and the results were analyzed in GraphPad Prism v9.

Row | Molecule | binding of Tapasin tetramers (MFI) (HLA-B*37:01) | Tm [1] [°C] | k2overall, fold higher than hTAPBPR (HLA-A*02:01 [2]) | Kd (HLA-A*02:01 [3]) [nM] | k2overall, fold improved compared to hTAPBPR (HLA-A*02:06) | Peptide exchange (HLA-B*08:01) | apparent rate constant kapp (HLA-A*01:01) [s⁻¹] | TAPBPR/MHC-I complex formation (HLA-A*02:01 [4]) | MFI ratios [5]
1 | chTapasin: recombinant luminal domain of chicken Tapasin, a homolog of TAPBPR (protein) QFRVEDAASPPPPPAPVRCALLEGVGRGGGLPGGGNARPALLRFGGDAETPPEPGPEPEVTFNVSDPWGTLTPLGVPPRTPPSCELNPTNPQTGSDPWSRPLHPDARSPPTAGGQWWVAAVGTPQYGVTALLQGGMGTEGTITAAVALAVLTHTPTLRARVGSPIHLHCAFAAPPSSFVLEWRHQNRGAGRVLLAYDSSTARAPRAHPGAELLLGTRDGDGVTAVTLRLARPSPGDEGTYICSVFLPHGHTQTVLQLHVFEPPKVTLSPKNLVVAPGTSAELRCHVSGFYPLDVTVTWQRRAGGSGTSQSPRDTVMDSWTSGHRQAADGTYSRTAAARLIPARPQHHGDIYSCVVTHTALAKPMRVSVRLLLAGTEGPHLEDIT | tight binding | 58 |  |  |  |  |  |  | 
2 | hTAPBPR^KRQ: human TAPBPR mutant R105K, K211R, R270Q (protein) KPHPAEGQWRAVDVVLDCFLAKDGAHRGALASSEDRARASLVLKQVPVLDDGSLEDFTDFQGGTLAQDDPPIIFEASVDLVQIPQAEALLHADCSGKEVTCEISKYFLQMTETTVKTAAWFMANMQVSGGGPSISLVMKTPRVTKNEALWHPTLNLPLSPQGTVRTAVEFQVMTQTQSLSFLLGSSASLDCGFSMAPGLDLISVEWRLQHRGRGQLVYSWTAGQGQAVRKGATLEPAQLGMARDASLTLPGLTIQDEGTYICQITTSLYQAQQIIQLNIQASPKVRLSLANEALLPTLICDIAGYYPLDVVVTWTREELGGSPAQVSGASFSSLRQSVAGTYSISSSLTAEPGSAGATYTCQVTHISLEEPLGASTQVVPPERR |  | 52.3 | approximately 60 fold | 243 | approximately 9 fold | failed to catalyze peptide exchange | 0.00013 |  | 
3 | moTAPBPR: recombinant luminal domain of mouse TAPBPR, XP_030111162.1 (protein) TDPPTAPTTAERQRQPTDIILDCFLVTEDRHRGAFASSGDRERALLVLKQVPVLDDGSLEGITDFQGSTETKQDSPVIFEASVDLVQIPQAEALLHADCSGKAVTCEISKYFLQARQEATFEKAHWFISNMQVSRGGPSVSMVMKTLRDAEVGAVRHPTLNLPLSAQGTVKTQVEFQVTSETQTLNHLLGSSVSLHCSFSMAPGLDLTGVEWRLQHKGSGQLVYSWKTGQGQAKRKGATLEPEELLRAGNASLTLPNLTLKDEGNYICQISTSLYQAQQIMPLNILAPPKIQLHLANKDPLPSLVCSIAGYYPLDVGVTWIREELGGIPAQVSGASFSSLRQSTMGTYSISSTVMADPGPTGATYTCQVAHVSLEEPLTTSMRVLPNPEQRG |  | 56 |  |  |  |  |  | formed a new band | less than 5.8
